Reference: doi:10.1101/2024.04.26.591406
Where “and” joins values, the source holds several entries; their conditions need not be identical. Equal entries are not always repeated.

Biological target: Vibrio His-FliFG fusion protein (FliF-FliG fusion) with the FliG-G214S mutation (Vibrio alginolyticus)
Assay: cryo-EM structure

Substance: Vibrio His-FliFG fusion protein (FliF-FliG fusion) with the FliG-G214S mutation
- stoichiometry N: 35 subunits and 34 subunits
